Experimental data from the Immune Epitope Database (IEDB).

Legend:
[1] = target: HLA-B*18:01; assay: IEDB peptide-MHC binding, purified MHC/competitive/radioactivity; filed as Kd, often an IC50 or EC50 that approximates it; ≥ and ≤ were set here for values at or beyond the usual limits of such assays
[2] = target: HLA-B*40:02; assay: as above
[3] = target: HLA-B*44:03; assay: as above
[4] = target: HLA-B*44:02; assay: as above
[5] = target: HLA-B*40:01; assay: as above
[6] = target: HLA-B*45:01; assay: as above
[7] = target: HLA-B*07:02; assay: as above
[8] = target: HLA-B*53:01; assay: as above
[9] = target: HLA-B*35:01; assay: as above
[10] = target: HLA-B*51:01; assay: IEDB peptide-MHC binding, purified MHC/competitive/fluorescence; filed as Kd, often an IC50 or EC50 that approximates it; ≥ and ≤ were set here for values at or beyond the usual limits of such assays; conditions: source organism: Vibrio vulnificus YJ016
[11] = target: HLA-A*24:03; assay: IEDB peptide-MHC binding, purified MHC/direct/fluorescence; filed as Kd, often an IC50 or EC50 that approximates it; ≥ and ≤ were set here for values at or beyond the usual limits of such assays
[12] = target: HLA-A*68:02; assay: IEDB peptide-MHC binding, purified MHC/competitive/radioactivity; filed as Kd, often an IC50 or EC50 that approximates it; ≥ and ≤ were set here for values at or beyond the usual limits of such assays; conditions: source organism: Dengue virus 4 Philippines/H241/1956
[13] = target: HLA-B*18:01; assay: IEDB peptide-MHC binding, purified MHC/competitive/fluorescence; filed as Kd, often an IC50 or EC50 that approximates it; ≥ and ≤ were set here for values at or beyond the usual limits of such assays; conditions: source organism: Yersinia enterocolitica
[14] = target: HLA-B*39:01; assay: as above; conditions: source organism: Yersinia enterocolitica
[15] = target: HLA-B*46:01; assay: as above; conditions: source organism: Yersinia enterocolitica
[16] = target: HLA-B*15:01; assay: as above; conditions: source organism: Yersinia enterocolitica
[17] = target: HLA-B*27:03; assay: as above; conditions: source organism: Yersinia enterocolitica
[18] = target: HLA-B*57:01; assay: as above; conditions: source organism: Yersinia enterocolitica
[19] = target: HLA-A*26:01; assay: as above; conditions: source organism: Yersinia enterocolitica
[20] = target: HLA-B*44:02; assay: IEDB peptide-MHC binding, purified MHC/direct/fluorescence; filed as Kd, often an IC50 or EC50 that approximates it; ≥ and ≤ were set here for values at or beyond the usual limits of such assays; conditions: source organism: Amur virus
[21] = target: HLA-B*40:01; assay: as above; conditions: source organism: Amur virus
[22] = target: HLA-B*51:01; assay: IEDB peptide-MHC binding, purified MHC/competitive/radioactivity; filed as Kd, often an IC50 or EC50 that approximates it; ≥ and ≤ were set here for values at or beyond the usual limits of such assays
[23] = target: HLA-B*08:01; assay: as above; conditions: source organism: Dengue virus 4 Philippines/H241/1956
[24] = target: HLA-B*15:17; assay: IEDB peptide-MHC binding, purified MHC/competitive/fluorescence; filed as Kd, often an IC50 or EC50 that approximates it; ≥ and ≤ were set here for values at or beyond the usual limits of such assays; conditions: source organism: Homo sapiens
[25] = source organism: SARS coronavirus Tor2
[26] = source organism: Dengue virus 1 Brazil/97-11/1997
[27] = source organism: Dengue virus 3 Martinique/1243/1999
[28] = source organism: Dengue virus 4 Philippines/H241/1956
[29] = source organism: Mammarenavirus guanaritoense
[30] = source organism: Mammarenavirus brazilense
[31] = source organism: Lymphocytic choriomeningitis virus (strain Armstrong)

KEEILGTVSW gave a Kd [1, 25] of 468 nM, a Kd [2, 25] of 266 nM and a Kd [3, 25] of 48.1 nM. For the same sequence, the Kd [4, 25] was 4.47 nM, the Kd [5, 25] was 19500 nM and the Kd [6, 25] was 2810 nM.

KPIDDRFAT was tested, and the Kd [7, 26] was 49.3 nM.

KPSGSASSMV was tested, and the Kd [7, 26] was 51.7 nM.

LPVCQSSSMR was tested, and the Kd [8, 27] was 15500 nM and the Kd [9, 27] was 330 nM.

LPVLSLNWV was tested, and the Kd [10] was 278 nM.

LYNTAIVGL showed a Kd ([11]; source organism: Mycobacterium tuberculosis variant bovis) of 0.8 nM.

MAWRTIMAV was tested, and the Kd [12] was 17 nM and the Kd [9, 28] was 765 nM.

Sequence MEAQFLYLYA has a Kd [1, 25] of 351 nM, a Kd [2, 25] of 68.7 nM and a Kd [3, 25] of 8.16 nM. For the same sequence, the Kd [4, 25] was 56.3 nM, the Kd [5, 25] was 1430 nM and the Kd [6, 25] was 4.51 nM.

NPGFALLAGF was tested, and the Kd [7, 28] was 233 nM, the Kd [8, 28] was 1520 nM and the Kd [9, 28] was 5440 nM.

Work on PECSDSPLVL yielded a Kd [1, 29] of 17300 nM, a Kd [2, 29] of 3150 nM and a Kd [3, 29] of at least 70100 nM. For the same sequence, the Kd [4, 29] was at least 70200 nM, the Kd [5, 29] was at least 33000 nM and the Kd [6, 29] was at least 70000 nM.

With QDPLLGTLS the Kd [1, 30] was at least 77500 nM, the Kd [2, 30] was 12600 nM and the Kd [3, 30] was at least 30400 nM. The Kd [4, 30] was at least 77900 nM, the Kd [5, 30] was at least 46400 nM and the Kd [6, 30] was at least 74300 nM.

REAPAHVST showed a Kd [1, 25] of 5190 nM, a Kd [2, 25] of 44.2 nM and a Kd [3, 25] of 8470 nM. The Kd [4, 25] was 4580 nM, the Kd [5, 25] was 46.8 nM and the Kd [6, 25] was 108 nM.

REEAIRHVRA was tested, and the Kd [1, 25] was at least 70500 nM, the Kd [2, 25] was 3330 nM and the Kd [3, 25] was at least 45900 nM. It also gave a Kd [4, 25] of 18800 nM, a Kd [5, 25] of 689 nM and a Kd [6, 25] of 57.6 nM.

For RELHLSWEV, the Kd [1, 25] was 78.8 nM, the Kd [2, 25] was 4.97 nM and the Kd [3, 25] was 21.5 nM. The Kd [4, 25] was 87.7 nM, the Kd [5, 25] was 3.07 nM and the Kd [6, 25] was 17.7 nM.

RELHLSWEVG showed a Kd [1, 25] of 1590 nM, a Kd [2, 25] of 198 nM and a Kd [3, 25] of 42.7 nM. It also gave a Kd [4, 25] of 8.3 nM, a Kd [5, 25] of 829 nM and a Kd [6, 25] of 1280 nM.

RTVSVMFFI showed a Kd [13] of at least 20000 nM, a Kd [14] of at least 20000 nM and a Kd [15] of at least 20000 nM. The Kd [16] was at least 20000 nM, the Kd [17] was at least 20000 nM and the Kd [18] was 1240 nM. The Kd [19] was at least 20000 nM.

For SEGGIFNIT, the Kd [20] was at least 20000 nM and the Kd [21] was 813 nM.

Work on SFMQEIPTF yielded a Kd ([11]; source organism: Mammarenavirus juninense) of 0.3 nM.

In the case of SPARLASAIL, the Kd [7, 28] is reported as 5.75 nM.

TEAILQLGDL showed a Kd [1, 31] of 10600 nM, a Kd [2, 31] of 936 nM and a Kd [3, 31] of 4300 nM. It also gave a Kd [4, 31] of 2480 nM, a Kd [5, 31] of 2960 nM and a Kd [6, 31] of 13300 nM.

TPRAKRGTAQ gave a Kd [7, 26] of 113 nM.

TPTGTVMDI showed a Kd [8, 27] of 114 nM and a Kd [22, 27] of 7240 nM.

With VALLRTYCI the Kd [23] was 35.5 nM and the Kd [22, 28] was 392 nM.

YSPALNKMF was tested, and the Kd [24] was 336 nM.
